Laboratory results as given in the nanobody polyreactivity screen of Harvey et al. (2022).

Test: yeast display, Sf9 membrane polyspecificity reagent, FACS + sequencing; frameworks hold sequencing errors
Summary of the method: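 Galactose induction of a Saccharomyces cerevisiae BJ5465 synthetic nanobody display library ran 36–48 hours. The cells were then stained for 1 hour at 4 °C with 10% biotinylated, detergent-solubilized Sf9 membrane reagent, pulled down on streptavidin microbeads and FACS-sorted into low and high (top ~1%) gates on expression and reagent-binding fluorescence. Labels for polyreactivity follow the gate of origin.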

Row | Sequence | polyreactivity (PSR sort gate)
1 | QVQLVESGGGLVQAGGSLRLSCAASGITFIRNGMGWYRQAPGKERELVAAISYTGARTYYADSVKGRFTISRDNAKNTVYLQMNSLKPEDNAVYYCAAEVRTRYLYSFRWYDYWGEGTQVTVSS | low polyreactivity
2 | QVQLVESGGGLVQAGGSLRISCAASGFTFYRYAMGWYRQAPGKERELVAAISSDGTTYNADSVKGRFTISRDNAKNTVYLQINSLKPEDNAVYYCAKRGYYRSRRYDYWGQGTQVNVSS | high polyreactivity
3 | QVQLVESGGGLDQAGGSLRLSCAASGSIFLDYAMGWYRQAPGKERELVAAISLSSSRTYYADSLKGRFTISRDNAKNTVYLQLNSLKPEDTAVYNCNKLSIWSYYFGPYGYDYWGQGTQVTVSS | low polyreactivity
4 | QVQLVESGGGLVQAGGSLRLSCAASGSIFHIYAMGWYRQAPGKERELVAAMTYADSVKGRFTISRDNAKNTVYLQMNSLKPEDTAVYYCNADNWPRIHGSAYDYWGQGTQVTVSS | low polyreactivity
5 | QVQLVESGGGLVQAGGSLRLSCAASGMIFQDNAMGWYSQAPGKERELVAAITTGGITYYADSVKGRFTISRDNAKNTVYLQMNSLKPEDTAVYYCATDPVKSGYQRYYYWGQGTQVTVSS | low polyreactivity
6 | QVQLVESVVGLVQAGGSLRLSCAASGGTFSFNAIGWYRQAPGKETELVAAITQTGDGTYYADSVKGRFTISRDNAKNSVYLQMNIMKPEDTAVYYCNTDSIPFVPWFRFDYWGQGTQVTVSS | low polyreactivity
7 | QVQLVESGGGLVQAGGSLRLSCAASGIILPVYAMGWYRPAPGKERELVAAIRWSSGRTYYADSVKGRFTISRDNAKNTVYLQMNSLKPEDTAVYYCAAYPSSEYDYWGQGTQVTVSS | low polyreactivity
8 | QVQLVESGGGLVQAGGSLRLSCAASGFIFAEYAMGWYRQAPWKERELVAAITRSGGRTYYADSVKGRFTISRDNAKNTVYLQMNSLKPEDTAVYYCAAGLGYPRLYYCGQGTQVTVSS | high polyreactivity
9 | QVQLVESGGGLVQAGGSLRLSCAASGSIFGSNMGWYRQAPGKERELVAAISSRGGRTYYADSVKGRFTISRDNAKNTVYLQMNSLKPEDTAVYYCATRTFRGCRGYEYWGQGTQVTVSS | high polyreactivity
10 | QVQLVESGGGLVQAGGSLRLSCAASGFTFYTNAMGWYRQAPGHERELVARISRRGGSTYYADSVKGRFTISRDNAKNTVYLQMNSLKPEDTAVYYCNADGRAAVQYDYWGQGTQVTVSS | high polyreactivity
11 | QVQLVESGGGLVQAGGSLRLSCAASGRTFIVNTMGWYRQAPGKERELVAAITARGGRTYYADSVKGRFTISRDNAKNTVYLQMNSLKPEDTAVYYCNARTPPREAERYYWGQGTQVTVSS | low polyreactivity
12 | QVHLVESGGGLVQAGGSLRLSCAASGYIFDIYAMGWYRQAPGKERELVAVITRSGGGTYYADSVKGRFTISRDNAKNTVYLQMNSLKPEDTAVYYCAAESYVYGGSDYDYWGQGTQVTVSS | low polyreactivity
13 | QVQLVESGVGLVQAGGSLRLSCAASGRTFPPYAMGWYRQAPGKERELVAAISSDGSTYADSVKGRFTISRDNAKNTVYLQMNSLKPEDTAVYYCAVDYTYSYRKHFGHILYSWGQGTQVTVSS | low polyreactivity
14 | QVQLVESGGGLVQAGCSLRLSCAASGRTFARYAMGWSRQAPGKVRELVAGISRSGDSTHYADSVKGRFTISRDNAKNTVYLQMNSRKPEDTSVYYCHKETPTIGARKYEYWGQGTQVTVSS | low polyreactivity
15 | QVHLVESGVGLGQAGGSLRLSCAASGSIFYSNAMGWYRPAPGKERELVATITWSGGRTYYADSVKGRFTISRDYAKNTFYLQMHSLKPEDTAVYYCAAVSIYWGHGTQVTVSS | low polyreactivity
16 | QVQLVESGGGLVQAGGSLRLSCAASGRTFTWNVMGWYRQAPGKERELVAAITTDDRTYADSVKGRFTISRDNAKNTVYLQMNILKPEDTAVYYCATVVAWSSRPVGEDYWGQGTQVTVSS | low polyreactivity
17 | QDQLVESGGGLVQAGGSLRLSCAASGSIFGSYAMGWYRQAPGKEMELVAAISYSGASTYYADSVKGRFTISRDNAKNTVYLQMNSLKPEDTAVYYCNKDPRWRRFNYWGQGTQVTVSS | high polyreactivity
18 | QVQLGESGGGLVQAGGSLRLSCAASGSTFVGSAMGWYIQAPGKDRELVAAISYSGGSTYYADSVKGRFTISRDNAKNTVYLQMNSLKPEDTAVYYCAAEWSRHYYYGPRYHYWGQGTQVTVSS | low polyreactivity
19 | QVQLVESGGGLVQAGGSLRLSCAASGSIFGYYAMGWYRQAPGNERELVAAISRSGGSTYYADSVKGRFTISRDNAKNTVYLQMNSLKPEDTAVYYCAADDYPYGNYYWGQGTQVTVSS | high polyreactivity
20 | QGQLVESGGGLVQAGGSRRLSCAASGYSIDNNAMGWYRQAPGKEREVVASITNSAGSTSYADSVKGRFTISRDTAKNTVYLQMNSLKPEDTAVCYCSAKRYHYFFQYSRSGAYGYWGHGTQVTVSS | high polyreactivity
21 | QVQLVESRGGLVQAGGSHRLSCAASGSIFGANAMGWYRQAPGKERELVAAITSGSGTNYADSVKGRFTISRDNAKNTVYLQMISLNPEDTAVYYCAAVVLYQGRYDYWGQGTQVTVSS | low polyreactivity
22 | QVQLVESGGGLVQAGGSLRLSCAASGRTFRSNAMGWYRQAPGKERELVAAISKGGDRTYYADSVKGRFTISRDNAKNNVYLHMNSLKPEDTAVYYCAARYTPSRYYYWGQGTQVTVSS | high polyreactivity

Row | Sequence | polyreactivity (PSR sort gate)
23 | QVQLVESGGGLVQAVGSLRLSCDATGSTLHKNTMGWYRQAPAKERELVAAISRRGGSTYYADSVKGRFTISRDNAKITVYLQMNSLKPEDTAVYYCATEGYDGEFDYWGQGTQVTVSS | high polyreactivity
24 | QVQLVESGGGLVQAGGSLRLSCAASGLIFSRYTMGWYRQAPGKERELVAAISGRGTSTYYADSVKGRFTISRDNAKNTVYLQMNSLKPEDTAVYYCATSKSYSAFDYWGQGTQVTVSS | high polyreactivity
25 | QVQLVESGGGLFQAGGSLRLSCAASGRIFAYNTMGWYRQAPAKERELVAVITSGGSTNYADSVKGRFTISRDNAKNTVYLQLNSLKAEDTAVYYCAKRPYGRSGGSRYDYWGQGTQVTVSS | high polyreactivity
26 | QVQLVESGGGLVQAGGSLRLRCASSGRTFQYYAMGWYRQAPGKEMELVAAISWSGGSTYYADSVKGRFTISRDNAKNTVYLQMNSLKPEDTAVYYCAAVVGRNGTRSYGYWGQGTQVTVSS | high polyreactivity
27 | QVQLVESGGGLVQAGGSLRLSCAASGFTFEDNTMGWYRQAPGKERELVAAITWGGVSTYYADSVKGRFTISRDNAKNTVYLQMNSLKPEDTAVYYCARDYDVYTVYLMDYWGQGTQVTVSS | low polyreactivity
28 | QVQLVESGGGLVQAGGSLRLSCAASGSTFDANTMGWYRQAPGKERELVAAISSNGGRTYYADSVKGRFTISRDNAKNTVYLLMNSLKPEDTAVYYCAASSYYRYRETYDYWGLGTQVTVSS | high polyreactivity
29 | QVQLVESGGGLVQAGGSLRLSCAASGFTFDHNAMGWYRQAPGKERELVARITGTGDSTYYADSVKGRFTISRDNAKKTVYLQMNSLNPEDSADYYCNADRRYDFYDGYGYWGQGTQVTVSS | low polyreactivity
30 | QVQLVESGGGLVQAGGSLRLSCAASGIIFTGYAMGWYRQAPGKERELVAAISGSGGRTYYSDSVKGRFTISRDNAKNTVYLQMNSLKPEDTAVYYCAAYRVSDYDYWGQGTQVTVSS | high polyreactivity
31 | QVQLVESGGGLVQAGGSLRLSCAASGITFKSYAMGWYRQAPGKERELVAAISRRGGSTYDADSVKGRFTISRDNAKNTVYLQMNSLKPEDTAVYYCNAAVGYYSYSYYTKVGVDYLGQGTQVTVSS | high polyreactivity
32 | QLQLVESGGGVVQAGGSLRLSCAASGGIFDRYAMGCDRQAPGKERELVAAITSGGSTNYADSVKGRFTISRDNAKNTVYLQMNSLQPEDTAVYYCNADLGILSGVAEGPTFREYDYWGQGTQVTVSS | low polyreactivity
33 | QVQLVESGAGLVQAGGSLRLSCAASGRTFFVNAMGWYRQAPGKERELVATITFSGDSTYYADSVKGRFTISRDNAKNTVFLQMNSLKPEDTAVYYCAARTGYGYTRYEYWGQGTQVTVSS | high polyreactivity
34 | QVQLVESGGGLFQAGGSLRLSCAASGFIFYPNAMGWYRQAPGKEREWVAAITDSGGSTYYADSVKGRFTISRDNAKNTVYLQMNSLKPEDTAVYYCNADYGGYYWTWGYDYWGQGTQVTVSS | low polyreactivity
35 | QVQLVESGGGLVQAGGSLRLSCAASGSTFVYYAMGWYRQAPGKERELVAAISTSAGSTYYADSVKGRFTISRDNAKNTVYLQMNSLKPEDTAVYYCAASRKRRRYGSISGGYWGQGTQVTVSS | high polyreactivity
36 | QDQLVESGGGLVQAGGSLRLSCAASGSTFGDYTMGSYRQAPGKEREFVAAITVSVGSTYFADSVKGRFTISRDTAKNTVYLQMNSVKPEDTAFYYCNTDRDPYYHYFDGLYYYWGQGTQVTVSS | low polyreactivity
37 | QVQLVESGGCLVQAGGSLRLSCASSGRTFSWNAMGCYRQAPGKEREFVAAISNSGGSTYYADSVNGRFTISRDNAKNTVYLQMNSLKPEDTAVYYCAVYRYYGFSLWYDYWGQCTQVTVSS | low polyreactivity
38 | QVQLVESGGGLVQAGGSLRLSCAASGFIFVTYAMGWYRQAPGKETELVAAINNSGGTTYYADSVKGRFTISRDNAKNTVYLQMNSLKPEDTAVYFCNKRYGAETAHREFDYWGQGTQVTVSS | low polyreactivity
39 | QVQLVESGGGLVQAGGSLRLSCAASGRIFSRYAMGGYRQAPGKERELVAAIRYSGGRTYYADSVKGRFTISRDNAKNTVYLQMNSLIPEDTEVYYCAADGQWYYAPFRGGDYENDYWGQGTQVTVSS | low polyreactivity
40 | QVQLVESGGGLVQAGGSLRLSCAASGFIFSYNAMGWYRQAPGKERELVASISRRSGITYYADSVKGRFTISRDNAKNTVYLQMNSLKPEDTAVYYCAVTQNSKSTKIRPDQGDYWGLGTQVTVSS | high polyreactivity
41 | QVQLVESGGGLDQARGSLRLSCPASGFIFTDYAMGWYRQAPGKERELVAGISGSGGRTYYADSVKGRFTISRDNAKNTVYLQMNSLKPEDTAVYYCAARGVPWLWYFRGMYWGQGTQVTVSS | high polyreactivity
42 | QVQLVESGGGLVQAGGSLRLSCAASGSIFDDYAMGWYRQAPGKERELVAAITSGGSTYYADSVKGRFTISRDNAKNTVYLQMNSLKPEDTAVYYCAAPENKSDEYDYWGQGTQVTVSS | low polyreactivity
43 | QVQLVESGGGLVQAGGSLRLSCAASGIFGWYAMGWYRQAPGKEREFVATINWSGGRTYYADSVKGRFTISRDNAKNTVYLQMNSLKPEDTAVYYCAAENYASEYDYWGQGTQVTVSS | low polyreactivity
